From patent US20240409645A1 come the findings set out here.

Sequences and labels used below:
T1: mouse IL-2Rβ (mouse) (UniProt P16297)
T1 sequence (looked up): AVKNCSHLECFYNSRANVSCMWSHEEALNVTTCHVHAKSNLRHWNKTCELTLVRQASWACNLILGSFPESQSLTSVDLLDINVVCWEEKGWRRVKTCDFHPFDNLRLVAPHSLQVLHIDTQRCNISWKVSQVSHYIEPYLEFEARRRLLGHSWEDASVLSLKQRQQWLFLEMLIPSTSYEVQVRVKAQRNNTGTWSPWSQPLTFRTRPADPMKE

B1: FJ1427 P035MP02D02 (VHH)
VHH: QVQLVESGGGLVQVGGSLSVSCAASGRSFDSITMAYFRQAPGNEREFIAGINFSGSRTAYGDSVKGRFTISRDNAKNTVFLQMNSLNPEDTAVYYCAASPRGFYGPGHALYDYWGQGTQVTVSS
B2: FJ1427_P035MP02F01 (VHH)
VHH: EVQLVESGGGLVQTGGSLRLSCAVSGSRFISDVMGWYRQVPGKQRELVADMADGGSAKYADSVKGRFSILRDSVKNTVYLQMSSLKPEDTGIYYCKAGLWIAGRHSDYWGQGTQVTVSS
B3: FJ1427_P035MP02B02 (VHH)
VHH: EVQLVESGGTLVQTGGSLRLSCVVSGSHFISDVMGWYRQVPGKQRELVADMADGGSAKYGDSVKGRFTIVRDSVKNTVYLQMSSLNPEDTGVYYCKAGLWIKGRHSDYWGQGTQVTVTS
B4: FJ1427 P035MP02G02 (VHH)
VHH: QVQLVESGGGLVQPGGSLRLSCAASGSHFISDVMGWYRQVPGKQRELVADMADGGSVKYGDSVKGRFTILRDSVKNTVTLQMSSLNPEDTGVYYCKAGLWITGRHFDYWGQGIQVTVTS
B5: FJ1427_P035MP02G01 (VHH)
VHH: QVQLVESGGGLVQTGGSLRLSCAVSGSRFISDVMGWYRQVPGKQRELVADMADGGSAKYADSVKGRFSILRDSAKNTVYLQMSSLKPEDTGIYYCKAGLWIAGRHSDYWGQGTQVTVSS
B6: FJ1427_P035MP02A03 (VHH)
VHH: QVQLVESGGGLVQPGGSLRLSCAASGFTFSNYAMSWVRQAPGKGLEWVSSITGAGRGTYYAESVKGRFTISRDNDKNTLYLQMNSLKPEDTAVYYCAKYDSSTFYPPTPARGIADRGQGTRVTVSS
B7: FJ1427_P035MP02H01 (VHH)
VHH: QVQLVESGGGLVQPGGSLGLSCAASGFTFDNYAMSWVRQAPGKGLEWVSSITGAGRGTHYADSVKGRFTISRDNAKNTLYLQMNSLKPEDTAVYYCAKYSSSTYYPPTPARGTDYRGPGTQVTVSS
B8: FJ1427_P035MP02A02 (VHH)
VHH: QVQLVESGGGLVQPGGSLRLSCAASGFTFDNYAMTWVRQAPGKGLEWVSSITGAGRGTHYADSVKGRFTISRDNAKNTLYLQVNSLKPEDTAVYYCARYSSSTYYPTTPVRGTDYRGQGTQVTVSS
B9: FJ1427_P035MP02C02 (VHH)
VHH: QVQLVESGGGLVQPGGSLRLSCAASGSRFVSDFMGWYRQVPGKQRELVADMADGGSARYGDSVKGRFTILRDNMNSTAFLQMSSLKPEDTGVYYCKAGLWIAGRHFDYWGQGTQVTVSS
B10: FJ1427_P035MP02B03 (VHH)
VHH: QVQLVESGGGLVQTGGSLRLSCAASGSRFVSDFMGWYRQVPGKQRELVADMADGGSARYGDSVKGRFTILRDSGNSTAYLQMSSLKPEDTGVYYCKAGLWIAGRHFDYWGQGTQVTVSS
B11: FJ1427_P035MP02E01 (VHH)
VHH: EVQLVESGGGLVQIGGSLRLSCAASGRTFSSITMAYFRQVPGKEREWVAGINFSGTRTFYADSVKGRFLISRDDAKSTMYLQMNSLKPEDTAVYYCAASPRGFYGPGNALYDYWGQGTQVTVSS
B12: FJ1427 P035MP02F02 (VHH)
VHH: EVQLVESGGGLVQAGGSLRLACALSGDVFVRYTMAWFRQAPGKEREFVASVTDSGRTTDYVASVQGRFTVSRDNNKNTVYLQMNSLKPEDTAVYYCAANTDYFQIRSLDRNTWGQGTQVTVSS
B13: FJ1427_P035MP02D03 (VHH)
VHH: QVQLVESGGGLVQAGGPLRLSCAASGGTFSSYAMGWFRQAPGKEREFVAATTRGGGRTMYAVSTEGRFTCSRDNAKNTVYLLMNSLKPEDTAVYYCAAMTSYYSGTYYPDSSDFDIWGQGTQVTVSS
B14: FJ1427 P035MP02E02 (VHH)
VHH: EVQLVESGGGLVQTGGSLRLSCAASGSQFINDVMGWYRQVPGKQRELVADMDDTGSTKYADSVKGRFTILRDSVKNTAYLQMSNLKPEDTGVYYCKAGLWIKGRHSDYWGQGTQVTVSS
B15: FJ1427_P035MP02C12 (VHH)
VHH: EVQLVESGGGSVQAGGSLRLSCAASGRTFSDYTMGWFRQAPGKEREFVVAITGTGHTTDMPDSVEGRFTISRDNAKNTIYLDMKNLKPGDTAVYYCASARGLPVTPLGDIIYWGEGTLVTVSS
B16: FJ1427 P035MP02B12 (VHH)
VHH: QVQLVESGGGLVQAGGSLRLSCAASGRADSNAIMAWFRQAPGKEREFIVAVTYSGMPTYQDDSVQGRFTASRDNAKNTVYLQMNSLKPEDTAVYYCAARMYSASTYYGDYDYWGQGTQVTVSS
B17: FJ1427_P035MP03H01 (VHH)
VHH: QVQLVESGGGSVQTGGSLRLSCVVSGSHFISDVMGWYRQVPGKQRELVADMADGGSAKYADSVKGRFTILRDSVKNTVTLQMSSLNPEDTGVYYCKAGLWITGRHSDYWGQGTQVTVTS
B18: FJ1427_P035MP03F01 (VHH)
VHH: QVQLVESGGGLVQVGGSLRVSCAASGRTSGDRNMGWFRQAPGKEREFVGIITWSSGSTVYADSVKGRFTISRDNAKNTVYLDMSSLKPEDTAVYYCAADYYPYSGSWNIMDYWGKGTLVTVSS
B19: FJ1427_P035MP02H11 (VHH)
VHH: EVQLVESGGGLVQAGGSLRLSCAASGRTFSTTEMGWFRQAPGKEREFVAAITWTGRGTMYAESVEGRFTISRENAKNMVYLQMNSLKPEDTAIYYCAAARRGRAAVRSEGGYDFWGQGTQVAVSS
B20: FJ1427 P035MP03B01 (VHH)
VHH: QVQLVESGGGLVQAGGSLRLSCAASGFTFSNYAMSWVRQAPGKGLEWVSSITGFGRGTDYADSVKGRFTISRDNAKNTLYLQMNSLKPEDTAVYYCARYSSSTYYPPTPARGTDYRGQGTQVTVSS
B21: FJ1427 P035MP03D01 (VHH)
VHH: QVQLVESGGGLVQPGGSLGLSCAASGFTFDNYAMSWVRQAPGKGLEWVSSITGAGRGTHYADSVKGRFTISRDNAKNTLYLQMNSLKPEDTAVYYCAKYSSSTYYPPTPARGTDYRGPGTQVTVSS
B22: FJ1427 P035MP02A12 (VHH)
VHH: QVQLQESGGGLVQAGGSLRLSCAVSGRSFRNYVMGWFRQAPGREREIVAGITQFTSTTYYDDSVKGRFTISRDNAKNTVYLQMNSLKPEDTALYYCAADRSIKMTADWAYWGQGTQVTVSS
B23: FJ1427_P035MP02F11 (VHH)
VHH: EVQLVESGGGLVQAGGSLRLSCAASGRDFSSYAMGWFRQAPGKEREFVVAITWTKRSTDFPDSVKGRFTISRDNAKNTVYLDMNSLKPEDTAVYYCASARGLPVTPLGDIIYWGEGTLVTVSS
B24: FJ1427_P035MP02G11 (VHH)
VHH: QLQLVESGGGLVQAGGSLRLSCAASGRDFSSYAMGWFRQAPGKEREFVVAITWTKRSTDFPDSVKGRFTISRDNAKNTVYLDMNSLKPEDTAVYYCASARGLPVTPLGDIIYWGEGTLVTVSS
B25: FJ1427_P035MP03B02 (VHH)
VHH: EVQLVESGGGLVQVGDSLRLSCAASGRTVGSANMGWFRQAPGKEREFVAVITWSTGSTVYADSVKGRFTISRDNAKNTVYLDMSSLKPDDTAVYYCAADVYPYSGNLNIMDYWGKGTLVTVSS
B26: FJ1427_P035MP02D12 (VHH)
VHH: QVQLVESGGGLVQAGGSLTLSCAASGGAFSSDAKAWFRQAPGKEREFVAAITWAGRGTDYADSVKGRFTITRDNAKATVHLQMNSLKPEDTAVYYCALNPRGVIGPAFRNSNHYTYWGQGTQVTVSS
B27: FJ1427 P035MP02F12 (VHH)
VHH: QLQLVESGGGLVQTGTSLRLSCAASGHTSRINAMGWFRQFPGKEREFVAAISRNGGSTVYVDSVKGRFTISRDNAKSTVYLQMNSLKPEDTAVYYCTATDAVGWTTRWMTADFGFWGQGTQVTVSS
B28: FJ1427 P035MP03E01 (VHH)
VHH: QVQLVESGGGLVQAGGSLRLSCAASGGTFSSYAMGWFRQAPGKEREFVAATTRGGGRTMYAVSTEGRFTCSRDNAKNTVYLLMNSLKPEDTAVYYCAAMTSYYSGTYYPDSSDFDIWGQGTQVTVSS
B29: FJ1427_P035MP03G01 (VHH)
VHH: EVQLVESGGGLVQAGGSLRLSCAASGGTFSSYAMGWFRQAPGKEREFVAATTRGGGRTMYAVSTEGRFTCSRDNAKNTVYLLMNRVKPEDTAVYYCAARTSYYSGTYYPASSDFDIWGQGTQVTVSS
B30: FJ1427_P035MP03A02 (VHH)
VHH: QVQLVESGGGLVQAGGSLRLSCAASGGTFSSYAMGWFRQAPGKEREFVAATTRGGGRTMYAVSTEGRFTCSRDNAENTVYLQMNSLKPEDTAIYYCAAMTSYYSGTYYPDSSDFDIWGQGTQVTVSS
B31: FJ1427_P035MP02E12 (VHH)
VHH: QVQLQESGGGLVQAGGSMRLSCAASGRTFSNYVIAWFRQAPGKEREFVGAITQTGRGTFYASSVEGRFTLSRLNDQSTVYLQMNSLNPEDTGVYYCSAPRSGRAGTRNQMDYEYWGQGTQVTVSS

The first assay deals with T1, mouse IL-2Rβ (mouse). The assay is described as follows: P.E. ELISA, coated protein.
B1 had a P.E. binding ELISA OD of 0.048 OD450 nm.

B2 gave a P.E. binding ELISA OD of 0.048 OD450 nm. B3 showed a P.E. binding ELISA OD of 0.048 OD450 nm. In turn, B4 yielded a P.E. binding ELISA OD of 0.049 OD450 nm. Same read-out and setting: as for B5, the figure is 0.049 OD450 nm; as for B6, 0.048 OD450 nm; as for B7, 0.051 OD450 nm. In turn, B8 displayed a P.E. binding ELISA OD of 0.049 OD450 nm. For the molecule B9, the P.E. binding ELISA OD was determined as 0.048 OD450 nm. Regarding B10, the P.E. binding ELISA OD stood at 0.048 OD450 nm. On the same count and under the same terms, as for B11, the figure is 0.049 OD450 nm.

B12 came in with a P.E. binding ELISA OD of 0.052 OD450 nm.

B13 came in with a P.E. binding ELISA OD of 0.048 OD450 nm. With B14, the P.E. binding ELISA OD stood at 0.049 OD450 nm.

A further assay deals with T1, mouse IL-2Rβ (mouse). The assay is described as follows: P.E. binding ELISA on coated protein.
With B15, the P.E. binding ELISA OD turned out to be 0.047 OD450 nm. Still for that read-out and setting: the same measure for B16: 0.048 OD450 nm; for B17: 0.051 OD450 nm; for B18: 0.049 OD450 nm.

Regarding B19, the P.E. binding ELISA OD worked out at 0.049 OD450 nm. The molecule B20 gave a P.E. binding ELISA OD of 0.05 OD450 nm. Consider B21, for which the P.E. binding ELISA OD worked out at 0.048 OD450 nm. With B22, the P.E. binding ELISA OD was found to be 0.047 OD450 nm. As to B23, the P.E. binding ELISA OD amounted to 0.047 OD450 nm. In turn, B24 yielded a P.E. binding ELISA OD of 0.049 OD450 nm. Still for that read-out and setting: as for B25, the figure is 0.068 OD450 nm; as for B26, 0.046 OD450 nm; as for B27, 0.048 OD450 nm. On to B28, for which the P.E. binding ELISA OD stood at 0.049 OD450 nm. Still for that read-out and setting: as for B29, the figure is 0.049 OD450 nm; as for B30, 0.052 OD450 nm.

The molecule B31 displayed a P.E. binding ELISA OD of 0.048 OD450 nm.
